From EP4721730A1, “PHARMACEUTICAL COMPOSITION COMPRISING SUSTAINED-RELEASE MICROSPHERE COMPRISING CAGRILINTIDE OR PHARMACEUTICALLY ACCEPTABLE SALT THEREOF AND PREPARATION METHOD THEREFOR” (G2GBIO, Inc., priority 2023, dated 2024)

Assay: Pharmacokinetics of a single-dose subcutaneous administration using SD rats (concentration of cagrilintide in blood)
Assay type: in vivo
Settings: s.c. 1.2 mg/head
Experimental: In order to evaluate a potential of the microsphere according to the present invention as a sustained-release therapeutic agent, the concentration of the cagrilintide in rat blood was measured by the following method.
Specifically, the microsphere was measured so that a dosage of the cagrilintide becomes 1.2 mg/head (API raw material solution, Example 5-6) or 3.6 mg/head (Comparative Examples 1 to 2, Examples 1-1 to 1-3, Example 5-1), dispersed in 0.5 mL of a suspension, and then subcutaneously injected into SD rats. 0.25 to 0.5 mL of blood was collected at prescheduled times and the concentration of the cagrilintide in blood was measured using HPLC.

Substance “cagrilintide [API raw material solution]” has a cumulative blood concentration (day 0, cagrilintide) of 0.0%, a cumulative blood concentration (day 0.042, cagrilintide) of 0.2% and a cumulative blood concentration (day 0.250, cagrilintide) of 4.5%. It also gave a cumulative blood concentration (day 1, cagrilintide) of 35.2%, a cumulative blood concentration (day 4, cagrilintide) of 91.1% and a cumulative blood concentration (day 7, cagrilintide) of 100.0%.
